# Measured values reported in the RNAGym collection of RNA variant scans (doi:10.7554/elife.80360).
# B1: CPEB3 Ribozyme (parent)
# chain: GGGGGCCACAGCAGAAGCGUUCACGUCGCGGCCCCUGUCAGAUUCUGGUGAAUCUGCGAAUUCUGCUGU
# Variants of: B1
# Experiment: self-cleavage, relative activity (ratio to wild type); higher = more cleavage; co-transcriptional
row,Variant,self-cleavage
1,GGGGGCCACAGCAGAAGCGUUCACGUCGGGGCCCCUGUAAGAUUCUGGUGAAUCUGCGAAUUCUGCUGU,0.213
2,GGGGGCCACAGCAGAAGCGUUCACGUCGGGGCCCCUGUCAGAUUCUGGUGAAUCUGCGACUUCUGCUGU,0.108
3,GGGGGCCACAGCAGAAGCGUUCACGUCGGGGCCCCUGUCAGAUUCUGGUGAAUCUGCGAUUUCUGCUGU,0.204
4,GGGGGCCACAGCAGAAGCGUUCACGUCGGGGCCCCUGUCAGAUUCUGGUGAAUCUGCGAGUUCUGCUGU,0.337
5,GGGGGCCACAGCAGAAGCGUUCACGUCGAGGCCCCUGUCAGAUUCUGGUUAAUCUGCGAAUUCUGCUGU,0.747
6,GGGGGCCACAGCAGAAGCGUUCACGUCGAGGCCCCUGUCAGAUUCUGGUAAAUCUGCGAAUUCUGCUGU,0.735
7,GGGGGCCACAGCAGAAGCGUUCACGUCGGGGCCCCUGUCAGAUUCUGGUGAGUCUGCGAAUUCUGCUGU,0.53
8,GGGGGCCACAGCAGAAGCGUUCACGUCGGGGCCCCUGUCAGAUUCUGGUGAUUCUGCGAAUUCUGCUGU,0.504
9,GGGGGCCACAGCAGAAGCGUUCACGUCGAGGCCCCUGUCAGAUUCUGGUGAAUCUGCGAAUUCUGCUGC,0.973
10,GGGGGCCACAGCAGAAGCGUUCACGUCGAGGCCCCUGUCAGAUUCUGGUGAAUCUGCGAAUUCUCCUGU,0.392
11,GGGGGCCACAGCAGAAGCGUUCACGUCGAGGCCCCUGUCAGAUUCUGGUGAAUCUGCGAAUUCUACUGU,0.371
12,GGGGGCCACAGCAGAAGCGUUCACGUCGAGGCCCCUGUCAGAUUCUGGUGAAUCUGCGAAUUCUUCUGU,0.25
13,GGGGGCCACAGCAGAAGCGUUCACGUCGGGGCACCUGUCAGAUUCUGGUGAAUCUGCGAAUUCUGCUGU,0.212
14,GGGGGCCACAGCAGAAGCGUUCACGUCGGGGCGCCUGUCAGAUUCUGGUGAAUCUGCGAAUUCUGCUGU,0.16
15,GGGGGCCACAGCAGAAGCGUUCACGUCGGGGCCCCUGUCAGAUUCUGGUGAAUCUGCGUAUUCUGCUGU,0.203
16,GGGGGCCACAGCAGAAGCGUUCACGUCGGGGCCCCUGUCAGAUUCUGGUGAAUCUGCGCAUUCUGCUGU,0.272
17,GGGGGCCACAGCAGAAGCGUUCACGUCGGGGCCCCUGUCAGGUUCUGGUGAAUCUGCGAAUUCUGCUGU,0.445
18,GGGGGCCACAGCAGAAGCGUUCACGUCGGGGCCCCUGUCAGUUUCUGGUGAAUCUGCGAAUUCUGCUGU,0.385
19,GGGGGCCACAGCAGAAGCGUUCACGUCGGGGCCGCUGUCAGAUUCUGGUGAAUCUGCGAAUUCUGCUGU,0.294
20,GGGGGCCACAGCAGAAGCGUUCACGUCGAGGCCCCUGUCAGAUUCUGGUGAAUCUGCGAAUUCGGCUGU,0.292
21,GGGGGCCACAGCAGAAGCGUUCACGUCGAGGCCCCUGUCAGAUUCUGGUGAAUCUGCGAAUUCCGCUGU,0.25
22,GGGGGCCACAGCAGAAGCGUUCACGUCGAGGCCCCUGUCAGAUUCUGGUGAAUCUGCGAAUUCAGCUGU,0.223
23,GGGGGCCACAGCAGAAGCGUUCACGUCGAGGCCCCUGUCAGAUUCUUGUGAAUCUGCGAAUUCUGCUGU,0.817
24,GGGGGCCACAGCAGAAGCGUUCACGUCGAGGCCCCUGUCAGAUUCUCGUGAAUCUGCGAAUUCUGCUGU,0.716
25,GGGGGCCACAGCAGAAGCGUUCACGUCGGGGCCCCUGUCAGAUUCUGGUGAAUCUGCGAAUUCUGCUGU,0.618
26,GGGGGCCACAGCAGAAGCGUUCACGUCGAGGCCCCUGUCAGAUACUGGUGAAUCUGCGAAUUCUGCUGU,0.55

row,Variant,self-cleavage
1,GGGGGCCACAGCAGAAGCGUUCACGUCGAGGCCCCUGUCAGAUUCUGGUGAAUCCGCGAAUUCUGCUGU,0.38
2,GGGGGCCACAGCAGAAGCGUUCACGUCGAGGCCCCUGUCAGAUUCUGGUGAAUCAGCGAAUUCUGCUGU,0.273
3,GGGGGCCACAGCAGAAGCGUUCACGUCGGGGACCCUGUCAGAUUCUGGUGAAUCUGCGAAUUCUGCUGU,0.196
4,GGGGGCCACAGCAGAAGCGUUCACGUCGGGGGCCCUGUCAGAUUCUGGUGAAUCUGCGAAUUCUGCUGU,0.18
5,GGGGGCCACAGCAGAAGCGUUCACGUCGAGGCCCCUGACAGAUUCUGGUGAAUCUGCGAAUUCUGCUGU,0.365
6,GGGGGCCACAGCAGAAGCGUUCACGUCGAGGCCCCUGGCAGAUUCUGGUGAAUCUGCGAAUUCUGCUGU,0.218
7,GGGGGCCACAGCAGAAGCGUUCACGUCGAGGCCCCUGCCAGAUUCUGGUGAAUCUGCGAAUUCUGCUGU,0.385
8,GGGGGCCACAGCAGAAGCGUUCACGUCGAGGCCCCUGUCAGAAUCUGGUGAAUCUGCGAAUUCUGCUGU,0.32
9,GGGGGCCACAGCAGAAGCGUUCACGUCGAGGCCCCUGUCAGAUUCUGGUGAAUCUGCAAAUUCUGCUGU,0.435
10,GGGGGCCACAGCAGAAGCGUUCACGUCGGGGCCCCUGUCAGAUUCUGGUGAAUCUGCGAAUUCUGAUGU,0.312
11,GGGGGCCACAGCAGAAGCGUUCACGUCGGGGCCCCUGUCAGAUUCUGGUGAAUCUGCGAAUUCUGUUGU,0.418
12,GGGGGCCACAGCAGAAGCGUUCACGUCGAGGCCCCUGUCAGAUUCUGGUGAAUCUGCGAAAUCUGCUGU,0.543
13,GGGGGCCACAGCAGAAGCGUUCACGUCGAGGCCCCUGUCAGAUUCUGGUGAAUCUGCGAAUCCUGCUGU,0.644
14,GGGGGCCACAGCAGAAGCGUUCACGUCGAGGCCCCUGUCAGAUUCUGGUGAAUCUGCGAAUACUGCUGU,0.409
15,GGGGGCCACAGCAGAAGCGUUCACGUCGAGGCCCCUGUCAGAUUCUGCUGAAUCUGCGAAUUCUGCUGU,0.728
16,GGGGGCCACAGCAGAAGCGUUCACGUCGAGGCCCCUGUCAGAUUCUGUUGAAUCUGCGAAUUCUGCUGU,0.755
17,GGGGGCCACAGCAGAAGCGUUCACGUCGAGGCCCCUGUCAGAUUCUGAUGAAUCUGCGAAUUCUGCUGU,0.777
18,GGGGGCCACAGCAGAAGCGUUCACGUCGAGGCCCCUGUCAGAUUCUGGUGAAUCUGCGAAUUCUGCUUU,0.903
19,GGGGGCCACAGCAGAAGCGUUCACGUCGAGGCCCCUGUCAGAUUCUGGUGAAUCUGCGAAUUCUGCUCU,0.914
20,GGGGGCCACAGCAGAAGCGUUCACGUCGGGGCCCCUGUCAGAUUCUGGUGAAUCUGGGAAUUCUGCUGU,0.183
21,GGGGGCCACAGCAGAAGCGUUCACGUCGGGGCCCCUGUCAGAUUCUGGUGAAUCUGAGAAUUCUGCUGU,0.215
22,GGGGGCCACAGCAGAAGCGUUCACGUCGGGGCCCCUGUCAGAUUCUGGUGAAUCUGUGAAUUCUGCUGU,0.206
23,GGGGGCCACAGCAGAAGCGUUCACGUCGGGGCCCCUGUCGGAUUCUGGUGAAUCUGCGAAUUCUGCUGU,0.457
24,GGGGGCCACAGCAGAAGCGUUCACGUCGGGGCCCCUGUCUGAUUCUGGUGAAUCUGCGAAUUCUGCUGU,0.277
25,GGGGGCCACAGCAGAAGCGUUCACGUCGGGGCCCCUGUCCGAUUCUGGUGAAUCUGCGAAUUCUGCUGU,0.157
26,GGGGGCCACAGCAGAAGCGUUCACGUCGGGGCCCCUGUCAAAUUCUGGUGAAUCUGCGAAUUCUGCUGU,0.236

row,Variant,self-cleavage
1,GGGGGCCACAGCAGAAGCGUUCACGUCGAGGCCCCUGUCAGAUUCUGGUGAACCUGCGAAUUCUGCUGU,0.356
2,GGGGGCCACAGCAGAAGCGUUCACGUCGAGGCCCCUGUCAGAUUCUGGUGAAGCUGCGAAUUCUGCUGU,0.454
3,GGGGGCCACAGCAGAAGCGUUCACGUCGAGGCCCCUGUCAGAUUCUGGUGAAACUGCGAAUUCUGCUGU,0.46
4,GGGGGCCACAGCAGAAGCGUUCACGUCGAGGCCCCUGUCACAUUCUGGUGAAUCUGCGAAUUCUGCUGU,0.195
5,GGGGGCCACAGCAGAAGCGUUCACGUCGGGGCCCCUGUCAGAUUCUGGUGAAUAUGCGAAUUCUGCUGU,0.259
6,GGGGGCCACAGCAGAAGCGUUCACGUCGGGGCCCCUGUCAGAUUCUGGUGAAUCUGCGAAUUUUGCUGU,0.418
7,GGGGGCCACAGCAGAAGCGUUCACGUCGGGGCCCCUGUCAGAUUCUGGUGAAUCUGCGAAUUAUGCUGU,0.23
8,GGGGGCCACAGCAGAAGCGUUCACGUCGGGGCCCCUGUCAGAUUGUGGUGAAUCUGCGAAUUCUGCUGU,0.407
9,GGGGGCCACAGCAGAAGCGUUCACGUCGGGGCCCCUGUCAGAUUAUGGUGAAUCUGCGAAUUCUGCUGU,0.402
10,GGGGGCCACAGCAGAAGCGUUCACGUCGGGGCCCAUGUCAGAUUCUGGUGAAUCUGCGAAUUCUGCUGU,0.234
11,GGGGGCCACAGCAGAAGCGUUCACGUCGGGGCCCUUGUCAGAUUCUGGUGAAUCUGCGAAUUCUGCUGU,0.307
12,GGGGGCCACAGCAGAAGCGUUCACGUCGGGGCCCGUGUCAGAUUCUGGUGAAUCUGCGAAUUCUGCUGU,0.301
13,GGGGGCCACAGCAGAAGCGUUCACGUCGGAGCCCCUGUCAGAUUCUGGUGAAUCUGCGAAUUCUGCUGU,0.173
14,GGGGGCCACAGCAGAAGCGUUCACGUCGGCGCCCCUGUCAGAUUCUGGUGAAUCUGCGAAUUCUGCUGU,0.271
15,GGGGGCCACAGCAGAAGCGUUCACGUCGGGUCCCCUGUCAGAUUCUGGUGAAUCUGCGAAUUCUGCUGU,0.131
16,GGGGGCCACAGCAGAAGCGUUCACGUCGGGACCCCUGUCAGAUUCUGGUGAAUCUGCGAAUUCUGCUGU,0.146
17,GGGGGCCACAGCAGAAGCGUUCACGUCGGGGCCCCUGUCAGAUUCUAGUGAAUCUGCGAAUUCUGCUGU,0.553
18,GGGGGCCACAGCAGAAGCGUUCACGUCGGGGCCCCUGUCAGAUUCUCGUGAAUCUGCGAAUUCUGCUGU,0.558
19,GGGGGCCACAGCAGAAGCGUUCACGUCGAGGCCCCUGUCAGAUUCUGGGGAAUCUGCGAAUUCUGCUGU,0.737
20,GGGGGCCACAGCAGAAGCGUUCACGUCGAGGCCCCUGUCAGAUUCUGGCGAAUCUGCGAAUUCUGCUGU,0.809
21,GGGGGCCACAGCAGAAGCGUUCACGUCGAGGCCCCUGUCAGAUUCGGGUGAAUCUGCGAAUUCUGCUGU,0.759
22,GGGGGCCACAGCAGAAGCGUUCACGUCGAGGCCCCUGUCAGAUUCUGGUGAAUCUGCGAAUUCUGCCGU,0.736
23,GGGGGCCACAGCAGAAGCGUUCACGUCGAGGCCCCUGUCAGAUUCUGGUGAAUCUGCGAAUUCUGCAGU,0.668
24,GGGGGCCACAGCAGAAGCGUUCACGUCGGGGCCCCUUUCAGAUUCUGGUGAAUCUGCGAAUUCUGCUGU,0.185
25,GGGGGCCACAGCAGAAGCGUUCACGUCGAGGCCCCAGUCAGAUUCUGGUGAAUCUGCGAAUUCUGCUGU,0.215
26,GGGGGCCACAGCAGAAGCGUUCACGUCGAGGCCCCCGUCAGAUUCUGGUGAAUCUGCGAAUUCUGCUGU,0.428
